These results are taken from patent US20190016816A1 (APTEVO RESEARCH AND DEVELOPMENT, published 2019).

Assay [1] addresses T1, FcγRIIIa (CD16a Phe158) (UniProt P08637 17-254, limits assumed).
T1 construct: whole, on cells; allotype Phe158 as printed
The assay can be described thus: flow cytometry, CHO cells stably expressing CD16a Phe158, fluorescent anti-human IgG secondary, MFI (mean). The text has this:
ALG.APV-210 contains mutations introduced to prevent interaction with Fcγ receptors (FcγR) that could lead to FcγR-mediated T-cell activation or ADCC, ADCP, CDC etc. Binding of ALG.APV-210 was therefore tested on CHO cell transfectants stably expressing the following FcγR: FcγRI (CD64), FcγRIIa (CD32a His131), FcγRIIb (CD32b), FcγRIIIa (CD16a Val158 and CD16a Phe158), and FcγRIIIb (CD16b). Untransfected CHO cells were used as negative control. A control human IgG1 molecule was used as a positive control. Different concentrations of ALG.APV-210 or control IgG1 were incubated with the FcγR-expressing cell lines, washed, and labeled with a secondary anti-human IgG reagent. Binding of ALG.APV-210 and the control IgG1 was detected by flow cytometry.
On the technique in general: A flow cytometer gives signals particle by particle.

Assay [2] deals with T2, cynomolgus CD137 on cells (cynomolgus macaque, UniProt A9YYE7 24-254).
T2 construct: whole, on cells; also called CHO-K1/cynomolgus CD137 cell line; cynomolgus monkey CD137 on CD3-stimulated primary CD8 T cells
T2 sequence (A9YYE7 entry or part of it): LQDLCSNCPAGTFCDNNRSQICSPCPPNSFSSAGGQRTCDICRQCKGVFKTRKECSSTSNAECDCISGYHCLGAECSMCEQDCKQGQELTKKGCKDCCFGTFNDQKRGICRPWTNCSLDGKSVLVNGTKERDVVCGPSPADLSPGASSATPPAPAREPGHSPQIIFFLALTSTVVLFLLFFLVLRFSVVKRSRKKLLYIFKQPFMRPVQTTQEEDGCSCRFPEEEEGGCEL
The assay can be described thus: flow cytometry, MFI of all CD3+CD8+ cells gated from CD3-stimulated cynomolgus PBMC. On the procedure:
Following 48 h of incubation with or without CD3, human and cynomolgus PBMC were harvested, pooled, recounted and diluted in FACS buffer (PBS+0.5% BSA, 0.05% NaN₃) to a concentration of 5×10⁶ cells/mL. 50 μL (0.25×10⁶ cells) of cell solution was added to a 96-well FACS staining plate (Falcon #351190). Following 10 min of Fc-blocking in RT using Beriglobin (hIgG, 200 μg/mL), cells were washed in FACS buffer and then incubated for 1 h in 4° C. with 100 μL of the biotinylated ALG.APV-210 or negative control. The antibodies were added in a serial dilution starting either at 5 μg/mL titrating down in a 12 step ⅓ dilution down to […] (exp 1) or 1 μg/mL titrating down in a 12 step ½ dilution down to 0.0005 μg/mL (exp 2). […] Cells were analysed for ALG.APV-210 binding using flow cytometry by gating on viable, single cells expressing CD3 and CD8. MFI values (FMO subtracted) from 2 independent experiments as well as normalized pooled data from 2 experiments and EC₅₀-values were determined and plotted using GraphPad Prism 7, non-linear regression log (agonist) vs. normalized response—variable slope, n=6 donors/group.

The target in assay [3] is T3, human 5T4 on cells (human, UniProt Q13641 32-420).
T3 construct: also called TPBG; hu5T4
T3 sequence: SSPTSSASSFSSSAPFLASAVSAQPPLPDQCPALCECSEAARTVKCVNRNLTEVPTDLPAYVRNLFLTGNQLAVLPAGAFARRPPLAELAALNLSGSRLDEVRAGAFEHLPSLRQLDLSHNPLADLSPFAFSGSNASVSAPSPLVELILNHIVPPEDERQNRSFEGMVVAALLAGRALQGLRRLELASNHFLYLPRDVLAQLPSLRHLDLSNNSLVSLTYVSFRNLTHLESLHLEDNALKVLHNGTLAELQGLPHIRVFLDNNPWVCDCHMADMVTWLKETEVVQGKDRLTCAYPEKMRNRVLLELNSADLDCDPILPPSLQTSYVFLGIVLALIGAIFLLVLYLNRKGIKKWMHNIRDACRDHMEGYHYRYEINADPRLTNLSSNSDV
The assay can be described thus: flow cytometry, SKOV-3 cells (endogenous human 5T4), labelled anti-human IgG secondary, MFI (mean). The method, then:
Binding studies were performed by standard flow cytometry-based staining procedures two cell lines expressing 5T4:CHO-K1 cells (obtained from Alligator) transduced with human or cynomolgus macaque 5T4 and SKOV-3 human ovarian adenocarcinoma cells which express (human) 5T4. All labeling and washes were performed in U-bottom 96-well plates in saline buffer with 0.1% BSA and 2 mM EDTA. Cell were plated at approximately 100,000 cells per well and incubated with a range of 100 nM to 0.05 nM concentrations of test molecules in […], for 30 minutes on ice. Cells were washed three times then incubated for another 30 min on ice with fluorescently-labeled secondary polyclonal antibody, F(ab′)² goat anti-human IgG (Jackson ImmunoResearch Laboratories). The cells were then washed twice and the samples acquired in a BD LSRII or a Symphony A3 flow cytometer. The sample files were analyzed using FlowJo software; the mean fluorescence intensity (MFI-mean) or median fluorescence intensity (MFI-median) of the live population of cells in each well was calculated after gating on live cells (forward vs side scatter). Nonlinear regression analysis to determine EC₅₀ values was performed in GraphPad Prism 6® graphing and statistics software.

T1 sequence (P08637 17-254 limits assumed): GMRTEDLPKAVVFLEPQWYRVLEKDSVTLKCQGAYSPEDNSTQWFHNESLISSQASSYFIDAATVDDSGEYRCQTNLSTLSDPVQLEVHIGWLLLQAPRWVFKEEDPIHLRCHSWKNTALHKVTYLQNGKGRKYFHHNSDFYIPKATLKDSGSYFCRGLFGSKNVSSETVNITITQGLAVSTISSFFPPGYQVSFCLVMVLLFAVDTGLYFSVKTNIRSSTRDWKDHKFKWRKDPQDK

B1: ALG.APV-210 (bispecific antibody)
chain: EVQLLESGGGLVQPGGSLRLSCAASGFTFSHGSMYWVRQAPGKGLEWVSSISSGSGSTYYADSVKGRFTISHDNSKNTLYLQMNSLRAEDTAVYYCARSSYYGSYYSIDYWGQGTLVTVSSGGGGSGGGGSGGGGSGGGGSDIQMTQSPSSLSASVGDRVTITCRASQSISSYLNWYQQKPGKAPKLLIYAASSLQSGVPSRFSGSGSGTDFTLTISSLQPEDFATYYCQQYYDNLPTFGQGTKLEIKEPKSSDKTHTCPPCPAPEAAGAPSVFLFPPKPKDTLMISRTPEVTCVVVDVSHEDPEVKFNWYVDGVEVHNAKTKPREEQYNSTYRVVSVLTVLHQDWLNGKEYKCAVSNKALPAPIEKTISKAKGQPREPQVYTLPPSRDELTKNQVSLTCLVKGFYPSDIAVEWESNGQPENNYKTTPPVLDSDGSFFLYSKLTVDKSRWQQGNVFSCSVMHEALHNHYTQKSLSLSPGSGGGGSGGGGSGGGGSPSEVQLLESGGGLVQPGGSLRLSCAASGFTFSSYAMSWVRQAPGKCLEWVSAISGSGGSTYYADSVKGRFTISRDNSKNTLYLQMNSLRAEDTAVYYCARYYGGYYSAWMDYWGQGTLVTVSSGGGGSGGGGSGGGGSGGGGSDIQMTQSPSSLSASVGDRVTITCRASQSISSFLNWYQQKPGKAPKLLIYAASSLQSGVPSRFSGSGSGTDFTLTISSLQPEDSATYYCQQTYGYLHTFGCGTKLEIKR
notes: Optimized ADAPTIR scFv-Fc-scFv homodimer with stabilizing disulfide in the 1210 scFv; also called 5T4-CD137 bispecific antibody
Consider B1, for which the binding result in assay [1] is on record as “no binding (tested: 1000 nM)”.

B2: biotinylated ALG.APV-210 (bispecific antibody)
chain: B1 chain
notes: also called ALG.APV-210 (biotinylated for FACS detection)
A word on the EC50: it is the concentration needed to bring the measured effect to its halfway point. B2: the EC50 in assay [2] worked out at 0.236 nM.

B3: ALG.APV-187 (bispecific antibody)
chain: EVQLLESGGGLVQPGGSLRLSCAASGFTFSHGSMYWVRQAPGKGLEWVSSISSGSGSTYYADSVKGRFTISHDNSKNTLYLQMNSLRAEDTAVYYCARSSYYGSYYSIDYWGQGTLVTVSSGGGGSGGGGSGGGGSGGGGSDIQMTQSPSSLSASVGDRVTITCRASQSISSYLNWYQQKPGKAPKLLIYAASSLQSGVPSRFSGSGSGTDFTLTISSLQPEDFATYYCQQYYDNLPTFGQGTKLEIKSSEPKSSDKTHTCPPCPAPEAAGAPSVFLFPPKPKDTLMISRTPEVTCVVVDVSHEDPEVKFNWYVDGVEVHNAKTKPREEQYNSTYRVVSVLTVLHQDWLNGKEYKCAVSNKALPAPIEKTISKAKGQPREPQVYTLPPSRDELTKNQVSLTCLVKGFYPSDIAVEWESNGQPENNYKTTPPVLDSDGSFFLYSKLTVDKSRWQQGNVFSCSVMHEALHNHYTQKSLSLSPGSGGGGSGGGGSGGGGSPSEVQLLESGGGLVQPGGSLRLSCAASGFTFSSYAMSWVRQAPGKCLEWVSAISGSGGSTYYADSVKGRFTISRDNSKNTLYLQMNSLRAEDTAVYYCARYYGGYYSAWMDYWGQGTLVTVSSGGGGSGGGGSGGGGSGGGGSDIQMTQSPSSLSASVGDRVTITCRASQSISSFLNWYQQKPGKAPKLLIYAASSLQSGVPSRFSGSGSGTDFTLTISSLQPEDSATYYCQQTYGYLHTFGCGTKLEIKR
notes: Optimized ADAPTIR scFv-Fc-scFv homodimer with stabilizing disulfide in the 1210 scFv
For the molecule B3, in assay [3], the EC50 was 9.2 nM and the “Maximum MFI” value amounted to 1800.
